Experimental data published in patent US20250320284A1 (AC IMMUNE, published 2025).

T1: CARD domain of human ASC (human, UniProt Q9ULZ3 107-195)
T1 construct: biotinylated in BLI; also called hCARD; human CARD
T1 sequence: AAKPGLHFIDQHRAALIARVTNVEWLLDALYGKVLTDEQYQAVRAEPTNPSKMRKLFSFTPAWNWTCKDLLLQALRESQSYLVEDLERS

T2: mouse ASC (mouse, UniProt Q9EPB4 1-193)
T2 construct: recombinant mASC in ELISA and SPR; endogenous ASC of J774.A1 cells in Western blot and immunofluorescence; also called mASC
T2 sequence: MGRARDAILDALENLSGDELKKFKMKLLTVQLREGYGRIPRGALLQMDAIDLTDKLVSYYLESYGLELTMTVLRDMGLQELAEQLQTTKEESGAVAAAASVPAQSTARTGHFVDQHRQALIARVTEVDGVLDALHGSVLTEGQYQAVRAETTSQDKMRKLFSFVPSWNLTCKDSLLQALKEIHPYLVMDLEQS


Legend:
PYD domain of human ASC = biological target: T3, PYD domain of human ASC (human, UniProt Q9ULZ3 1-91, limits assumed); experiment: ELISA, coated hPYD;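 further: monoclonal antibody binding to plate-coated human ASC PYD measured by ELISA, with a phosphatase substrate absorbance read-out and EC50 from a variable slope curve fit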
T3 construct: biotinylated in BLI; His/MBP-tagged in the alanine ELISA; also called hPYD; human PYD
T3 sequence (Q9ULZ3 1-91 limits assumed): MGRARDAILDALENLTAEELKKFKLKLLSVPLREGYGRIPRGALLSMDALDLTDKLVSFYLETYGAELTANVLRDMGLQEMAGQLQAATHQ

CARD domain of human ASC = biological target: T1, CARD domain of human ASC; experiment: ELISA, coated hCARD
[1] = biological target: T4, human ASC (apoptosis associated speck-like protein containing a caspase-recruitment domain) (human, UniProt Q9ULZ3 1-195); experiment: ELISA, coated hASC; ELISA on hASC protein
T4 construct: recombinant hASC in ELISA and SPR; endogenous ASC (cytoplasmic or specks) in Western blot and immunofluorescence; also called hASC; PYCARD

[2] = biological target: T4, human ASC (apoptosis associated …); experiment: SPR avidity mode, ASC immobilized; SPR avidity mode, hASC covalently immobilized, mAb as analyte;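 on koff: Single-cycle SPR kinetics on Biacore T200, antibodies injected at 1.2–100 nM (3-fold steps), 300 s association, 900 s dissociation, double-referenced, 1:1 kinetic model fit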;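 on kon: Single-cycle SPR kinetics on Biacore T200, antibodies injected at 1.2–100 nM (3-fold steps), 300 s association, 900 s dissociation, double-referenced, 1:1 kinetic model fit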
[3] = biological target: T4, human ASC (apoptosis associated …); experiment: SPR affinity mode, mAb captured; SPR affinity mode, mAb captured by Fc, hASC 2.2-180 nM in solution;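 on koff: Single-cycle SPR kinetics with mAbs captured on goat anti-mouse antibody, double-referenced against blank flow cell and buffer cycle, fitted by a 1:1 kinetic model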;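 on kon: Single-cycle SPR kinetics with mAbs captured on goat anti-mouse antibody, double-referenced against blank flow cell and buffer cycle, fitted by a 1:1 kinetic model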
[4] = biological target: T4, human ASC (apoptosis associated …); experiment: ELISA, coated hASC
[5] = biological target: T4, human ASC (apoptosis associated …); experiment: SPR affinity mode, mAb captured;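 further: Single-cycle SPR kinetics with mAbs captured on goat anti-mouse antibody, double-referenced against blank flow cell and buffer cycle, fitted by a 1:1 kinetic model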
[6] = biological target: T4, human ASC (apoptosis associated …); experiment: SPR avidity mode, ASC immobilized;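 further: Single-cycle SPR kinetics on Biacore T200, antibodies injected at 1.2–100 nM (3-fold steps), 300 s association, 900 s dissociation, double-referenced, 1:1 kinetic model fit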
mouse ASC = biological target: T2, mouse ASC; experiment: Western blot, J774.A1 mouse macrophage lysate

Row | binding result (PYD domain of human ASC) | EC50 (CARD domain of human ASC) | EC50 [1] | Kd [2] | Kd [3] | EC50 [4] | Kd [5] | koff [5] | kon [5] | Kd [6] | koff [6] | kon [6] | binding result (mouse ASC) | Binder
1 | no binding | 0.067 nM | 0.1 nM | 10.2 nM | 42 nM |  |  |  |  |  |  |  |  | ACI-8016-203B12C3-AB1 (antibody, V domains shown) VH: QVQLKQSGPGLVQPSQSLSITCKVSDFSLSHYGVHWVRQSPGKGLEWLGVIWSGGTTEYNEAFISRLTISKDNSKSQILFRMNSLQPADTAIYYCARKGDFYGDYFDYWGQGTTLTVSS VL: DIQMTQTSSSLSASLGDRVTISCRASQDISNYLNWYQQRPDGTVKLLIYYTSKVHSGVPSRFSGSGSGTDFSLTISNLEQEDFATYYCQQGNTRPFTFGGGTKLEIK
2 | no binding | 0.06 nM |  |  |  | 0.05 nM | 0.13 nM | 2.2e-05 s⁻¹ | 160000 M⁻¹ s⁻¹ | 0.01 nM | 1.2e-06 s⁻¹ | 92000 M⁻¹ s⁻¹ | no binding | ACI-8016-413G10A5-AB1 (antibody, V domains shown) VH: QVQLKESGPGLVAPSQSLSITCTVSGFSLTSYGVHWVRQPPGKGLEWLGVIWAGGSTNYNSALMSRLSISKDNSKSQVFLKMNSLQTADTAMYYCARWDYVNSYEAMDYWGQGTSVTVSS VL: DVVMTQTPLSLPVSLGDQASISCRSSQSLVHSNGNTYLHWYLQKPGQSPKLLIYKVSNRFSGVPDRFSGSGSGTDFTLKISRVEAEDLGVYFCSQSTHVPYTFGGGTKLEIK
